What was measured:
[1] = biological target: recombinant human VEGF165 protein (human) (UniProt P15692); assay: cell-based or functional assay
[2] = biological target: VEGF-165, VEGFC and VEGFD mixture; assay: cell-based or functional assay

EYLEA (Fc fusion), sequence (chain): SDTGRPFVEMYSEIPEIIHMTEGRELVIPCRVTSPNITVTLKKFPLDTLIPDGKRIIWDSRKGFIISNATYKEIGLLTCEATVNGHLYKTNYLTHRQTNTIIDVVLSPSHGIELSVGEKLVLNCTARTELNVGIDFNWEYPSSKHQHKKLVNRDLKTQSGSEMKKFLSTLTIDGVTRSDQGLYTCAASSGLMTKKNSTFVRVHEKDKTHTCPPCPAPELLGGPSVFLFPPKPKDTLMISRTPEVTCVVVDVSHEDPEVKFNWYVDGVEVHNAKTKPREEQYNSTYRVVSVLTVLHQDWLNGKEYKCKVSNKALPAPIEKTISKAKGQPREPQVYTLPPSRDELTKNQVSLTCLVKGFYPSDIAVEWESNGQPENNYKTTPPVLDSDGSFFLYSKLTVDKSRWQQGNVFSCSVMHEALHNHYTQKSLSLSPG

Row | Substance | EC50(nM), neutralizing VEGF165 at 10 ng/mL, HUVEC proliferation [1] [nM] | EC50(nM), neutralizing VEGF165 at 100 ng/mL, HUVEC proliferation [1] [nM] | EC50(nM), neutralizing VEGF165 at 1000 ng/mL, HUVEC proliferation [1] [nM] | maximum neutralization rate (%), VEGF165 at 10 ng/mL, HUVEC proliferation [1] [%] | maximum neutralization rate (%), VEGF165 at 100 ng/mL, HUVEC proliferation [1] [%] | maximum neutralization rate (%), VEGF165 at 1000 ng/mL, HUVEC proliferation [1] [%] | EC50(nM), neutralizing VEGF165, VEGFC and VEGFD mixture, HUVEC proliferation [2] [nM] | Maximum neutralization rate Emax (%), VEGF165, VEGFC and VEGFD mixture, HUVEC proliferation [2] [%]
1 | EYLEA (Fc fusion) | 0.16 | 2.9 | 40.2 | 101 | 98.7 | 80.2 | – | –
2 | Avastin (bevacizumab) (antibody) | – | – | – | – | – | – | 0.77 | 58.5

Reference: patent publication US20220144930A1
